{"source": "patent US12258605B2", "about": "“Alkane oxidation by modified hydroxylases” (The California Institute of Technology, priority 2005, dated 2025)", "molecules": {"B1": {"name": "35-E11: P450 BM-3 variant, SEQ ID NO:7: 53-5H substitutions plus E464G and I710T (protein)", "chain": "TIKEMPQPKTFGELKNLPLLNTDKPVQALMKIADELGEIFKFEAPGCVTRYLSSQRLIKEACDESRFDKNLSQALKFFRDFSGDGLFTSWTHEINWKKAHNILLPSFSQQAMKGYHAMMVDIAVQLVQKWERLNADEHIEVSEDMTRLTLDTIGLCGFNYRFNSFYRDQPHPFIISMVRALDEVMNKLQRANPDDPAYDENKRQCQEDIKVMNDLVDKIIADRKARGEQSDDLLTQMLNGKDPETGEPLDDGNISYQIITFLIAGHETTSGLLSFALYFLVKNPHVLQKVVEEAARVLVDPVPSYKQVKQLKYVGMVLNEALRLWPTFPAFSLYAKEDTVLGGEYPLEKGDEVMVLIPQLHRDKTIWGDDVEEFRPERFENPSAIPQHAFKPFGNGQRACIGQQFALHEATLVLGMMLKHFDFEDHTNYELDIKETLTLKPEGFVVKAKSKKIPLGGIPSPSTGQSAKKVRKKAENAHNTPLLVLYGSNMGTAEGTARDLADIAMSKGFAPQVATLDSHAGNLPREGAVLIVTASYNGHPPDNAKQFVDWLDQASADEVKGVRYSVFGCGDKNWATTYQKVPAFIDETLAAKGAENIADRGEADASDDFEGTYEEWREHMWSDVAAYFNLDIENSEDNKSTLSLQFVDSAADMPLAKMHGAFSTNVVASKELQQPGSARSTRHLEIELPKEASYQEGDHLGVIPRNYEGTVNRVTARFGLDASQQIRLEAEEEKLAHLPLAKTVSVEELLQYVELQDPVTRTQLRAMAAKTVCPPHKVELEALLEKQAYKEQVLAKRLTMLELLEKYPACEMKFSEFIALLPSIRPRYYSISSSPRVDEKQASITVSVVSGEAWSGYGEYKGIASNYLAELQEGDTITCFISTPQSEFTLPKDPETPLIMVGPGTGVAPFRGFVQARKQLKEQGQSLGEAHLYFGCRSPHEDYLYQEELENAQSEGIITLHTAFSRMPNQPKTYVQHVMEQDGKKLIELLDQGAHFYICGDGSQMAPAVEATLMKSYADVHQVSEADARLWLQQLEEKGRYAKDVWAG", "modifications": "mutant P450 35-E11 protein sequence"}}, "key": {"[1]": {"experiment": "Ethane hydroxylation to ethanol (rate, total turnover)", "assay_type": "biochemical", "protocol": "Ethane hydroxylation by 53-5H was measured after 12-hour incubations of the enzyme in ethane-saturated buffer containing an ethanol-free NADPH regeneration system (commercial NADPH contains 2-3% ethanol). While the reaction is uncoupled to NADPH oxidation in the presence of ethane (660 min-1, see Table 2), 53-5H nevertheless consistently produces at least 50 equivalents of ethanol independent of the starting concentration of enzyme (see FIGS. 2 and 3). Over oxidation was tested by supplying ethanol as a substrate and monitoring ethanol depletion by gas chromatography and the production of acetaldehyde and acetic acid by ^13C NMR using ^13C-labeled ethanol. No (i.e. less than 10%, the detection limit of these experiments) over oxidation products were detected in these experiments (see FIG. 4). In general, the hydrophobic active sites in P450s assist in the release of singly-hydroxylated products.\nReactions on ethane were carried out similarly to those described for propane (Peters et al., J. Am. Chem. Soc. 125:13442 (2003); incorporated by reference herein). Because commercially-available NADPH contains 2-3% ethanol, an NADPH regeneration system was used. Thereby, the background ethanol concentration was reduced to approximately 1 μM. Ethane hydroxylation reactions were performed in 20 mL glass vials. A 5.0 mL reaction mixture contained 100, 200 or 500 nM purified protein in 0.1 M potassium phosphate buffer (pH 8.0) saturated with ethane and dioxygen. […] The vial was immediately topped with a septum, pressurized with 20 psi of ethane and stirred at 25° C. For determination of total turnover, the reaction was allowed to proceed for four hours. For rate determination the reaction was stopped at 0, 15 and 30 min. 50 μL of 5 mM 1-butanol was added to the reaction mixture as an internal standard. Ethanol and 1-butanol were subsequently derivatized to their corresponding alkyl nitrites. Control reactions were performed by repeating these steps without substrate and with inactivated protein, to correct for background levels of ethanol. […] Reactions with ethane and corresponding control reactions without ethane or with inactivated protein were carried out in triplicate. […]\nRates of ethanol formation were measured over 30 min using gas chromatography (GC) coupled to an electron capture detector (ECD) and are reported as nmol ethanol/min/nmol enzyme. […] Total turnover number (ttn) was measured using GC after completion of the reaction and is reported as nmol product/nmol protein. […] Initial rates of propanol and octanol formation were measured over 1 min by GC and are reported as nmol product/min/nmol protein. […] The “ee” of 2-octanol (main product) was measured by GC; the favored enantiomer is listed in parenthesis. […]"}, "[2]": {"experiment": "NADPH oxidation/consumption rates and coupling efficiency", "assay_type": "biochemical", "protocol": "NADPH oxidation rates were measured over 20 s at 25° C. using a BioSpec-1601 UV-Vis spectrophotometer (Shimadzu, Columbia, MD) and 1 cm pathlength cuvettes. […] The reaction was initiated by the addition of NADPH and the decrease in absorption at 340 nm was monitored. NADPH consumption rates were also measured without substrate (see Table 2).\nThe coupling efficiency is estimated from product formation rate/NADPH oxidation rate. In general, NADPH oxidation rates cannot be measured on the same time scale as ethanol formation rates.\nFor the data shown in Table 6 the initial NADPH consumption rates were measured over 15 seconds at 340 nm as nmol NADPH/min/nmol protein. Octane reactions contained 100 nM P450, 166 uM NADPH, and 4 mM octane in 1% ethanol and potassium phosphate buffer. […] Errors are at most 10%. Initial rates were measured by GC over 1 minute as nmol total products/min/nmol protein. Octane reactions contained 100 nM P450, 500 uM NADPH, and 4 mM octane in 1% ethanol and potassium phosphate buffer. Propane reactions contained 1 uM P450, 500 uM NADPH, and propane-saturated potassium phosphate buffer. Coupling was determined by ratio of product formation rate to NADPH consumption rate. Total turnover numbers were determined as nmol product/nmol enzyme. Octane reactions contained 10-25 nM P450, 500 uM NADPH, and 4 mM octane in 1% ethanol and potassium phosphate buffer. Propane reactions contained 10-25 nM protein, potassium phosphate buffer saturated with propane, and an NADPH regeneration system containing 100 uM NADP+, 2 U/mL isocitrate dehydrogenase, and 10 mM isocitrate.\nFor Table 13, total turnover numbers were determined as nmol product/nmol protein. […] The rates of product formation were measured by GC over 20 s as nmol total products/min/nmol protein. The reactions contained P450 (200 nM), NADPH (500 μM) and octane (2 mM) in ethanol (2%) and potassium phosphate buffer (0.1 M, pH 8.0). The rates of NADPH oxidation were measured over 20 s at 340 nm as nmol NADPH/min/nmol protein. The reactions contained P450 (200 nM), NADPH (160 μM), and octane (2 mM) in ethanol (2%) and potassium phosphate buffer (0.1 M, pH 8.0). The background NADPH oxidation rate (without substrate) rate was 220/min. The coupling efficiency is the ratio of product formation rate to NADPH oxidation rate.\nThe activity of BM-3-A328V on CM and other substrates such as HME, DME, and propane was further investigated by measuring product formation rate, cofactor consumption and coupling efficiency (Table 14). This mutant was also found to be capable to hydroxylate ethane to ethanol, although only for a total of about 5-10 turnovers. In Table 14 “consumption” rates are expressed as nmol NADPH/nmol enzyme/min and “product formation” rates are expressed as nmol product/nmol enzyme/min."}}}
{"molecule": "B1", "values": [{"measurement": "ethanol produced", "setting": "[1]; 200 nM of mutant, typical reaction with ethane", "value": "over 50 μM"}, {"measurement": "Ethane ttn", "setting": "[1]; after completion of the reaction", "value": 250, "unit": "nmol product/nmol protein"}, {"measurement": "increase in total turnover of ethane to ethanol", "setting": "[1]; compared to 53-5H", "value": "five-fold"}, {"measurement": "Ethane Rate", "setting": "[1]; ethanol formation over 30 min, GC-ECD, dash = no activity", "value": "0.4 nmol ethanol/min/nmol enzyme"}, {"measurement": "Coupling efficiency", "setting": "[2]; Octane", "value": 64, "unit": "%"}, {"measurement": "NADPH oxidation rate", "setting": "[2]; ethane", "value": "~520", "unit": "min⁻¹"}, {"measurement": "Coupling efficiency", "setting": "[2]; ethane, product formation rate/NADPH oxidation rate", "value": 0.08, "unit": "%"}, {"measurement": "NADPH oxidation rate", "setting": "[2]; no substrate", "value": 390, "unit": "min⁻¹"}, {"measurement": "NADPH oxidation rate", "setting": "[2]; octane, 1% ethanol", "value": 660, "unit": "min⁻¹"}, {"measurement": "Coupling efficiency", "setting": "[2]; propane", "value": 26, "unit": "%"}, {"measurement": "NADPH oxidation rate", "setting": "[2]; propane", "value": 800, "unit": "min⁻¹"}]}
